# Experimental data: US20200093883
# Tested on: JNK inhibitor according to SEQ ID NO: 172 ("XG-104")
substance,measurement,value
c-Jun N-terminal kinase (JNK) in primary mouse cortical neurons,"c-Jun phosphorylation (immunoblot), WT neurons stressed with 2 µM Aβ42, 10 µM XG-104",XG-104 showed -29% efficacy in order to decrease c-Jun phosphorylation (FIG. 55 C)
